Among the data in patent US20050152898A1 (BIOVATION, published 2005) are EC50 values, retold here.

The labels stand for the following.
T1: CD52 human leukocyte antigen (human, UniProt P31358 25-36)
T1 construct: whole, on cells; also called CD52 antigen
T1 chain (looked up): GQNDTSQTSSPS

B1: DIVH5/DIVK4 (antibody, human IgG1, V domains shown)
VH: EVQLLESGGGLVQPGGSLRLSCAGSGFTFTDFYMNWIRQPPGKAPEWLGFIRDKAKGYTTEYNPSVKGRFTISRDNSKNTLYLQMNSLRAEDTAVYYCAREGHTAAPFDYWGQGTLVTVSS
VL: DIQMTQSPSSLSASVGDRVTITCKASQNIDKYLNWYQQKPGKAPKSLIYNTNNLQTGVPSRFSGSGSGTDFTLTISSLQPEDIATYYCLQHISRPRTFGTGTKLELK
notes: also called DIVHv5/DIVKv4
B2: DIVH3/DIVK4 (antibody, human IgG1, V domains shown)
VH: EVKLQESGGGLVQPGGSMRISCSGSGFTFTDFYMNWIRQPPGKGPEWIGFIRDKAKGYTTEYNPSVKGRFTISRDNTQNTLHLQANTLRAEDTAVYYCAREGHTAAPFDYWGQGTTVTVSS
VL: B1 VL
notes: also called DIVHv3/DIVKv4
B3: DIVH3/DIVK5 (antibody, human IgG1, V domains shown)
VH: B2 VH
VL: B1 VL with A43S, S46L
notes: also called DIVHv3/DIVKv5
B4: DIVH3/DIVK1 (antibody, human IgG1, V domains shown)
VH: B2 VH
VL: B1 VL with K24R, T56S
notes: also called DIVHv3/DIVKv1
B5: DIVH5/DIVK5 (antibody, human IgG1, V domains shown)
VH: B1 VH
VL: B1 VL with A43S, S46L
notes: also called DIVHv5/DIVKv5

Numbering of substitutions follows the chain as printed.

In the test the target is T1, CD52 human leukocyte antigen. The test can be described thus: FACS on HUT-78 cells (CD52+), FITC anti-human IgG Fc, median fluorescence, 4-parameter fit; titre = 50% of maximum binding. How it is done: Human T-cell lymphoma cell line HUT-78 is CD52 positive and was used to assess binding of the modified antibodies of the present invention. In the present example, different concentrations of test antibody were incubated with the cells and the amount of bound antibody was assessed following incubation with a fluorescent-labelled reporter reagent. The reporter is measured using a fluorescence activated cell sorter (FACS).
For detection, the cells were incubated for 1 hour on ice with a 1:1000 dilution of FITC-labelled anti-human IgG Fc domain. This reagent is a goat anti-human IgG (Fc specific) obtained from Sigma (Poole, UK). The cells were washed as previously and re-suspended in 100 μl of PBS/2% FBS and transferred to 4 ml FACS tubes (Becton Dickinson) containing 900 μl of PBS/2% FBS/Propidium Iodide (1:1000). The cells were analysed using a conventional Becton Dickenson FACS Calibur instrument.
The binding of the test and control antibodies was determined using the Median Fluorescence value. The saturating concentration of antibody was determined from plots of the Median Fluorescence—Zero Antibody Median Fluorescence versus Concentration of antibody. The binding curves were fitted to a logistic 4 parameter sigmoidal equation using SigmaPlot, giving an excellent fit with 95% confidence levels.
As to B1, the EC50 was determined as 4.05 µg/mL. Then B2, with 8.63 µg/mL; and B3, with 3.3 µg/mL; and B4, with 9.6 µg/mL. The same measure for B5: 3 µg/mL.

As usually defined, the EC50 is the concentration needed to bring the measured effect to its halfway point. High values mean a need for much substance, low ones an effect from little substance.
